Test results as given in article doi:10.1101/196097.

Tests used:
[1] = target: Fluorescein (FAM)-labeled calmodulin T34C (UniProt P0DP23); assay: fluorescence polarisation
[2] = target: Calcium-independent phospholipase A2β, short variant (SH-iPLA2β), wild type (Chinese hamster (cloned from CHO cells)); assay: AUC
[3] = target: FAM-labeled synthetic peptide corresponding to the 1-9-14 motif of iPLA2β; assay: fluorescence polarisation
[4] = target: FAM-labeled synthetic peptide corresponding to the IQ motif of iPLA2β; assay: fluorescence polarisation

Substance	Kd [1] [µM]	stoichiometry N [2]	Kd [3] [µM]	Kd [4] [µM]
Calcium-independent phospholipase A2β, short variant (SH-iPLA2β), wild type (from UniProt A0A3L7I2I8 1-807) (enzyme)	0.112	2		
Calmodulin (from UniProt P0DP23 1-149) (natural protein)			2.5	5.9
iPLA2β W695E mutant (from UniProt A0A3L7I2I8 1-807) (enzyme)	> 1.4			
